# Data reported in patent US4642335A, “Anthracycline compounds bound to hydrophilic polypeptides” (Ajinomoto Co., Inc., priority 1984, dated 1987).
# System: mouse L1210 leukemia
# Assay: antitumor activity against mouse L1210 leukemia, life prolongation rate
# Type: in vivo
# Settings: once a day for five days starting 24 hours after tumor cell injection, control survival day = 100%
# Method: (§1) These HB-6 substances were tested for their antitumor activity in terms of mouse L1210 leukemia. L1210 leukemia cells (1×10^5) were abdominally injected to each mouse, and the test sample was administered once a day for consecutive five days, with the first administration being started 24 hours after injection of the tumor cells. The result is summarized in Table 1, in which the antitumor activity of each drug is expressed as life prolongation rate, taking the survival day for the control group as 100%.
# as §1, with “HBW-6” for “HB-6”, “2,” for “1,”
Molecule,Life Prolongation Rate (dose 2 mg/Kg),Life Prolongation Rate (dose 1 mg/Kg)
"CC[C@@]1(O)C[C@H](O[C@H]2C[C@H](N(C)C)[C@H](O[C@H]3C[C@H](O)[C@H](O[C@H]4CCC(=O)[C@H](C)O4)[C@H](C)O3)[C@H](C)O2)c2c(cc3c(c2O)C(=O)c2c(O)cccc2C3=O)[C@H]1C(=O)OC [Aclacinomycin A, aclacinomycin A, reference compound]",135%,–
"COc1cccc2c1C(=O)c1c(O)c3c(c(O)c1C2=O)C[C@@](O)(C(=O)CO)C[C@@H]3O[C@H]1C[C@H](N)[C@H](O)[C@H](C)O1 [Adriamycin, adriamycin, reference compound]",150%,–
"HB-10(A): NCS-apoprotein and daunomycin combined at molar ratio 1:1 (conjugate, UniProt P0A3R9 35-147, looked up, complex with daunomycin, 1:1) Neocarzinostatin: AAPTATVTPSSGLSDGTVVKVAGAGLQAGTAYDVGQCAWVDTGVLACNPADFSSVTADANGSASTSLTVRRSFEGFLFDGTRWGTVDCTTAACQVGLSDAAGNGPEGVAISFN",250%,–
"HB-22(B): NCS-apoprotein and γ-rhodomycin Y bound together, molar ratio 1:5 (conjugate, UniProt P0A3R9 35-147, looked up, γ-rhodomycin Y conjugate, 1:5) Neocarzinostatin: AAPTATVTPSSGLSDGTVVKVAGAGLQAGTAYDVGQCAWVDTGVLACNPADFSSVTADANGSASTSLTVRRSFEGFLFDGTRWGTVDCTTAACQVGLSDAAGNGPEGVAISFN",–,150%
"HBW-22(B): NCS-apoprotein and γ-rhodomycin Y bound together, molar ratio 1:5 (conjugate, UniProt P0A3R9 35-147, looked up, complex with gamma-rhodomycin Y, 1:5) Neocarzinostatin: AAPTATVTPSSGLSDGTVVKVAGAGLQAGTAYDVGQCAWVDTGVLACNPADFSSVTADANGSASTSLTVRRSFEGFLFDGTRWGTVDCTTAACQVGLSDAAGNGPEGVAISFN",–,162%
"HB-21(B): NCS-apoprotein and aclacinomycin A bound together, molar ratio 1:5 (conjugate, UniProt P0A3R9 35-147, looked up, aclacinomycin A conjugate, 1:5) Neocarzinostatin: AAPTATVTPSSGLSDGTVVKVAGAGLQAGTAYDVGQCAWVDTGVLACNPADFSSVTADANGSASTSLTVRRSFEGFLFDGTRWGTVDCTTAACQVGLSDAAGNGPEGVAISFN",145%,–
"HB-10(B): NCS-apoprotein and daunomycin combined at molar ratio 1:10 (conjugate, UniProt P0A3R9 35-147, looked up, daunomycin conjugate, 1:10) Neocarzinostatin: AAPTATVTPSSGLSDGTVVKVAGAGLQAGTAYDVGQCAWVDTGVLACNPADFSSVTADANGSASTSLTVRRSFEGFLFDGTRWGTVDCTTAACQVGLSDAAGNGPEGVAISFN",265%,–
"HB-21(A): NCS-apoprotein and aclacinomycin A bound together, molar ratio 1:1 (conjugate, UniProt P0A3R9 35-147, looked up, complex with aclacinomycin A, 1:1) Neocarzinostatin: AAPTATVTPSSGLSDGTVVKVAGAGLQAGTAYDVGQCAWVDTGVLACNPADFSSVTADANGSASTSLTVRRSFEGFLFDGTRWGTVDCTTAACQVGLSDAAGNGPEGVAISFN",142%,–
"HB-18(B): NCS-apoprotein and cosmomycin A bound together, molar ratio 1:5 (conjugate, UniProt P0A3R9 35-147, looked up, cosmomycin A conjugate, 1:5) Neocarzinostatin: AAPTATVTPSSGLSDGTVVKVAGAGLQAGTAYDVGQCAWVDTGVLACNPADFSSVTADANGSASTSLTVRRSFEGFLFDGTRWGTVDCTTAACQVGLSDAAGNGPEGVAISFN",170%,–
"HB-10(D): NCS-apoprotein and daunomycin combined at molar ratio 4:1 (conjugate, UniProt P0A3R9 35-147, looked up, complex with daunomycin, 4:1) Neocarzinostatin: AAPTATVTPSSGLSDGTVVKVAGAGLQAGTAYDVGQCAWVDTGVLACNPADFSSVTADANGSASTSLTVRRSFEGFLFDGTRWGTVDCTTAACQVGLSDAAGNGPEGVAISFN",200%,–
"HB-10(C): NCS-apoprotein and daunomycin combined at molar ratio 2:1 (conjugate, UniProt P0A3R9 35-147, looked up, daunomycin conjugate, 2:1) Neocarzinostatin: AAPTATVTPSSGLSDGTVVKVAGAGLQAGTAYDVGQCAWVDTGVLACNPADFSSVTADANGSASTSLTVRRSFEGFLFDGTRWGTVDCTTAACQVGLSDAAGNGPEGVAISFN",230%,–
"HBW-10(B): NCS-apoprotein and daunomycin bound through hydrogen bond and/or hydrophobic bond, molar ratio 1:5 (conjugate, UniProt P0A3R9 35-147, looked up, noncovalent complex with daunomycin, 1:5) Neocarzinostatin: AAPTATVTPSSGLSDGTVVKVAGAGLQAGTAYDVGQCAWVDTGVLACNPADFSSVTADANGSASTSLTVRRSFEGFLFDGTRWGTVDCTTAACQVGLSDAAGNGPEGVAISFN",–,270%
"HBW-22(A): NCS-apoprotein and γ-rhodomycin Y bound together, molar ratio 1:1 (conjugate, UniProt P0A3R9 35-147, looked up, γ-rhodomycin Y conjugate, 1:1) Neocarzinostatin: AAPTATVTPSSGLSDGTVVKVAGAGLQAGTAYDVGQCAWVDTGVLACNPADFSSVTADANGSASTSLTVRRSFEGFLFDGTRWGTVDCTTAACQVGLSDAAGNGPEGVAISFN",–,158%
"HB-20(B): NCS-apoprotein and adriamycin bound together, molar ratio 1:5 (conjugate, UniProt P0A3R9 35-147, looked up, complex with adriamycin, 1:5) Neocarzinostatin: AAPTATVTPSSGLSDGTVVKVAGAGLQAGTAYDVGQCAWVDTGVLACNPADFSSVTADANGSASTSLTVRRSFEGFLFDGTRWGTVDCTTAACQVGLSDAAGNGPEGVAISFN",205%,–
"HB-18(A): NCS-apoprotein and cosmomycin A bound together, molar ratio 1:1 (conjugate, UniProt P0A3R9 35-147, looked up, cosmomycin A conjugate, 1:1) Neocarzinostatin: AAPTATVTPSSGLSDGTVVKVAGAGLQAGTAYDVGQCAWVDTGVLACNPADFSSVTADANGSASTSLTVRRSFEGFLFDGTRWGTVDCTTAACQVGLSDAAGNGPEGVAISFN",168%,–
"HBW-20(B): NCS-apoprotein and adriamycin bound together, molar ratio 1:5 (conjugate, UniProt P0A3R9 35-147, looked up, adriamycin conjugate, 1:5) Neocarzinostatin: AAPTATVTPSSGLSDGTVVKVAGAGLQAGTAYDVGQCAWVDTGVLACNPADFSSVTADANGSASTSLTVRRSFEGFLFDGTRWGTVDCTTAACQVGLSDAAGNGPEGVAISFN",–,245%
"HBW-18(B): NCS-apoprotein and cosmomycin A bound together, molar ratio 1:5 (conjugate, UniProt P0A3R9 35-147, looked up, complex with cosmomycin A, 1:5) Neocarzinostatin: AAPTATVTPSSGLSDGTVVKVAGAGLQAGTAYDVGQCAWVDTGVLACNPADFSSVTADANGSASTSLTVRRSFEGFLFDGTRWGTVDCTTAACQVGLSDAAGNGPEGVAISFN",–,175%
"HB-22(A): NCS-apoprotein and γ-rhodomycin Y bound together, molar ratio 1:1 (conjugate, UniProt P0A3R9 35-147, looked up, complex with gamma-rhodomycin Y, 1:1) Neocarzinostatin: AAPTATVTPSSGLSDGTVVKVAGAGLQAGTAYDVGQCAWVDTGVLACNPADFSSVTADANGSASTSLTVRRSFEGFLFDGTRWGTVDCTTAACQVGLSDAAGNGPEGVAISFN",–,145%
"HBW-20(A): NCS-apoprotein and adriamycin bound together, molar ratio 1:1 (conjugate, UniProt P0A3R9 35-147, looked up, noncovalent complex with adriamycin, 1:1) Neocarzinostatin: AAPTATVTPSSGLSDGTVVKVAGAGLQAGTAYDVGQCAWVDTGVLACNPADFSSVTADANGSASTSLTVRRSFEGFLFDGTRWGTVDCTTAACQVGLSDAAGNGPEGVAISFN",–,268%
"HB-20(A): NCS-apoprotein and adriamycin bound together, molar ratio 1:1 (conjugate, UniProt P0A3R9 35-147, looked up, complex with adriamycin, 1:1) Neocarzinostatin: AAPTATVTPSSGLSDGTVVKVAGAGLQAGTAYDVGQCAWVDTGVLACNPADFSSVTADANGSASTSLTVRRSFEGFLFDGTRWGTVDCTTAACQVGLSDAAGNGPEGVAISFN",200%,–
"HBW-18(A): NCS-apoprotein and cosmomycin A bound together, molar ratio 1:1 (conjugate, UniProt P0A3R9 35-147, looked up, complex with cosmomycin A, 1:1) Neocarzinostatin: AAPTATVTPSSGLSDGTVVKVAGAGLQAGTAYDVGQCAWVDTGVLACNPADFSSVTADANGSASTSLTVRRSFEGFLFDGTRWGTVDCTTAACQVGLSDAAGNGPEGVAISFN",–,170%
